Laboratory results reported in patent publication US20260184782A1 (TWIST BIOSCIENCE, published 2026).
Positions count from the first letter of the chain named.

T1: TIGIT (UniProt Q495A1 22-141, limits assumed)
T1 construct: also called T cell immunoreceptor with Ig and ITIM domains; hTIGIT
T1 sequence (looked up): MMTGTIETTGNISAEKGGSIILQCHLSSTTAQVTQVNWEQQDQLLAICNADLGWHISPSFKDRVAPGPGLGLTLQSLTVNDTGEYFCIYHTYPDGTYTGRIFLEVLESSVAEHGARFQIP

T2: human TIGIT-Fc (human, UniProt Q495A1 22-141, limits assumed)
T2 construct: not shown: Fc; not described
T2 sequence (looked up): T1 sequence (looked up)

B1: TIGIT-31-34 (VHH-V5-His) (VHH)
VHH: EVQLVESGGGLVQPGGSLRLSCAASGRSRYGMGWFRQAPGKEREFVSAISWSGISTYYADSVKGRFTISADNSKNTAYLQMNSLKPEDTAVYYCAATQWGSSGWKQARWYDWGQGTLVTVSS
notes: not shown: V5-His tag
B2: TIGIT-30-54 (VHH-V5-His) (VHH)
VHH: EVQLVESGGGLVQAGGSLRLSCAASGFTFRSFGMGWFRQAPGKEREFVASTIWSRGDTYYADSVKGRFTISADNAKNTVYLQMNSLKPEDTAVYYCASSPYGPLYRSTHYYDWGQGTQVTVSS
notes: not shown: V5-His tag
B3: TIGIT-31-06 (VHH-V5-His) (VHH)
VHH: EVQLVESGGGLVQPGGSLRLSCAASGFTFSTSWMGWFRQAPGKERELVASITSGGSTYYADSVKGRFTISADNSKNTAYLQMNSLKPEDTAVYYCAADVWYGSTWRNWGQGTLVTVSS
notes: also called TIGIT-31-6; 31-6; not shown: V5-His tag
B4: TIGIT-31-08 (VHH-V5-His) (VHH)
VHH: B3 VHH with S50A, I51R, T52N, S56N, Y58N
notes: also called TIGIT-31-8; 31-8; not shown: V5-His tag
B5: TIGIT-31-35 (VHH-V5-His) (VHH)
VHH: B3 VHH with S56T, Y58N
notes: not shown: V5-His tag
B6: TIGIT-31-32 (VHH-V5-His) (VHH)
VHH: B3 VHH with S50A, I51M, S56G, Y58N
notes: not shown: V5-His tag
B7: TIGIT-31-47 (VHH-V5-His) (VHH)
VHH: B3 VHH with T31G, S32N, L47W, A49V, S50G, T52S, S56T, T57P, Y58H
notes: not shown: V5-His tag
B8: TIGIT-31-01 (VHH-V5-His) (VHH)
VHH: B3 VHH with S30D, T31R, L47V
notes: also called TIGIT-31-1; 31-1; not shown: V5-His tag
B9: TIGIT-31-26 (VHH-V5-His) (VHH)
VHH: B3 VHH with S30D, T31R, S50A
notes: not shown: V5-His tag
B10: TIGIT-31-20 (VHH-V5-His) (VHH)
VHH: B3 VHH with T31G, S32N, L47F, S50G, T52L, G54D, S56R, T57E, Y58L
notes: not shown: V5-His tag
B11: TIGIT-31-56 (VHH-V5-His) (VHH)
VHH: EVQLVESGGGLVQPGGSLRLSCAASGRIFRRNSMGWFRQAPGKEREFVAVITRSGGGEVTTYADSVKGRFTINADNSKNTAYLQMNSLKPEDTAVYYCAMSSVTRGSSDWGQGTLVTVST
notes: not shown: V5-His tag
B12: TIGIT-30-58 (VHH-V5-His) (VHH)
VHH: EVQLVESGGGLVQAGGSLRLSCAASGFAFGDSWMGWFRQAPGKEREWVSGISSGGGRTYYADSVKGRFTISADNAKNTVYLQMNSLKPEDTAVYYCAADVWYGSTWRNWGQGTQVTVSS
notes: not shown: V5-His tag
B13: TIGIT-SC57 (Fc fusion)
VHH: EVQLVESGGGLVQPGGSLRLSCAASGNTFSGGFMGWFRQAPGKEREWVASVLRGGYTWYADSVKGRFTISADNSKNTAYLQMNSLKPEDTAVYYCTTYRGWGQGTLVTVSS
notes: VHH-Fc
B14: TIGIT-SC36 (Fc fusion)
VHH: EVQLVESGGGLVQPGGSLRLSCAASGNTFNFNVMGWFRQAPGKEREAVASIWRSGGNTYYADSVKGRFTISADNSKNTAYLQMNSLKPEDTAVYYCARDLEWRPYYMDVWGQGTLVTVSS
notes: VHH-Fc
B15: TIGIT-SC46 (Fc fusion)
VHH: EVQLVESGGGLVQPGGSLRLSCAASGRTFSNYVMGWFRQAPGKERELVASISSFGSTYYADSVKGRFTISADNSKNTAYLQMNSLKPEDTAVYYCARSGGFLSDWGQGTLVTVSS
notes: VHH-Fc
B16: TIGIT-SC51 (Fc fusion)
VHH: EVQLVESGGGLVQPGGSLRLSCAASGRTEANYAMGWFRQAPGKEREFVAAISWDGGATAYADSVKGRFTISADNSKNTAYLQMNSLKPEDTAVYYCGDYEGHWGQGTLVTVSS
notes: VHH-Fc
B17: TIGIT-SC68 (Fc fusion)
VHH: B16 VHH with R27H, E29F, A30R, N31G, F47A, D54S, G56D, A57N, A59Y
notes: VHH-Fc
B18: TIGIT-SC31 (Fc fusion)
VHH: EVQLVESGGGLVQPGGSLRLSCAASGRAFESYAMGWFRQAPGKERELVATIGWSGTDYADSVKGRFTISADNSKNTAYLQMNSLKPEDTAVYYCAKGYTSGLSDWGQGTLVTVSS
notes: VHH-Fc
B19: TIGIT-SC38 (Fc fusion)
VHH: EVQLVESGGGLVQPGGSLRLSCAASGFTFSEYPMGWFRQAPGKEREFVAVVNWNGDSTYYADSVKGRFTISADNSKNTAYLQMNSLKPEDTAVYYCARGSDWYRYWGQGTLVTVSS
notes: VHH-Fc
B20: TIGIT-SC205 (Fc fusion)
VHH: EVQLVESGGGLVQPGGSLRLSCAASGFTFDRSWMGWFRQAPGKEREFVAAIWRSGTLKAYADSVKGRFTISADNGKNTAYLQMNSLKPEDTAVYYCAEGGTTAWGWFVPWGQGTLVTVSS
notes: VHH-Fc
B21: TIGIT-SC208 (Fc fusion)
VHH: EVQLVESGGGLVQPGGSLRLSCAASGFLFDSYVMGWFRQAPGKEREFVAAIWRSGTLKAYADSVKGRFTISADNSKNTEYLQMNSLKPEDTAVYYCARDDYGDTRRYFQHWGQGTLVTVSS
notes: VHH-Fc
B22: TIGIT-SC209 (Fc fusion)
VHH: B21 VHH with D30N, V33W, T104Y, R106I
notes: VHH-Fc
B23: TIGIT-SC207 (Fc fusion)
VHH: B21 VHH with L28A, D30S
notes: VHH-Fc
B24: TIGIT-SC182 (Fc fusion)
VHH: EVQLVESGGGLVQPGGSLRLSCAASGFTFSSSSMGWFRQAPGKEREFVAAINWSGGSTSYADSVKGRFTISADNSKNTAYLQMNSPKPEDTAVYYCAKDRSYSFDYWGQGTLVTVSS
notes: VHH-Fc
B25: TIGIT-SC214 (Fc fusion)
VHH: EVQLVESGGGLVQPGGSLRLSCAASGFTFGDSWMGWFRQAPGKEHEFVAAIWRSGTLKAYADSVKGRFTISADNSKNTAYLQMNSLKPEDTAVYYCTSYDAVAGTRDFWGQGTLVTVSS
notes: VHH-Fc
B26: TIGIT-SC204 (Fc fusion)
VHH: EVQLVESGGGLVQPGGSLRLSCAASGFLFNSYWMVWFRQAPGKEREFVAAIWRSGTLKAYADSVKGRFTISADNSKNTAYLQMNSLKPEDTAVYYCAADVNYGSTWRNWGQGTLVTVSS
notes: VHH-Fc
B27: TIGIT-SC192 (Fc fusion)
VHH: EVQLVESGGGLVQPGGSLRLSCAASGFTFSVYWMGWFRQAPGKEREFVAAISRSGTLKEYADSVKGRFTISADNSKNTAYLQMNSLKPEDTAVYYCARGSGWPKIHFDYWGQGTLVTVSS
notes: VHH-Fc
B28: TIGIT-SC181 (Fc fusion)
VHH: EVQLVESGGGLVQPGGSLRLSCAASGFTLSSNWMGWFRQAPGKEREFVASVLRGGYTWYADSVKGRFTISADNSKNTAYLQMNSLKPEDTAVYYCARDAYYYGLWGQGTLVTVSS
notes: VHH-Fc
B29: TIGIT-SC190 (Fc fusion)
VHH: EVQLVESGGGLVQPGGSLRLSCAASGFTFDRSWMGWFRQAPGKEREWVASVLRGGYTWYADSVKGRFTISADNSKNTAYLQMNSLKPEDTAVYYCVTDVGAPDYWGQGTLVTVSS
notes: VHH-Fc
B30: TIGIT-SC199 (Fc fusion)
VHH: EVQLVESGGGLVQPGGSLRLSCAASGFSSAQYAMGWFRQAPGKERELVASIDSEGRTNYADSVKGRFTISADNSKNTAYLQMNSLKPEDTAVYYCTRDGGFDPWGQGTLVTVSS
notes: VHH-Fc
B31: TIGIT-SC213 (Fc fusion)
VHH: EVQLVESGGGLVQPGGSLRLSCAASGTFQRINAMGWFRQAPGKEREFVAAIWRSGTLKAYADSVKGRFTISADNSKNTAYLQMNSLKPEDTAVYYCARWVGASGDYWIDYWGQGTLVTVSS
notes: VHH-Fc
B32: TIGIT-SC206 (Fc fusion)
VHH: EVQLVESGGGLVQPGGSLRLSCAASGFLFDSYVMGWFRQAPGKEREFVAAIWRSGTLKAYADSVKGRFTISADNSKNTAYLQMNGLKPEDTAVYYCAGVGTDYGDYLFNYWGQGTLVTVSS
notes: VHH-Fc
B33: TIGIT-SC186 (Fc fusion)
VHH: EVQLVESGGGLVQPGGSLRLSCAASGNTFSGGFMGWFRQAPGKEREYVASVLRGGYTWYADSVKGRFTISADNSKNTTYLQMNSLKPEDTAVYYCTTDRGYNWNYDWGQGTLVTVSS
notes: VHH-Fc

target: T1, TIGIT; test: SPR, VHH-V5-His

Row | Binder | Kd [nM] | RU [RU] | koff [s⁻¹] | kon [M⁻¹ s⁻¹]
1 | B1 | 473000 | 25300 | 0.2 | 400
2 | B2 | 1090 | 130 | 0.04 | 30000
3 | B3 | 145 | 107 | 0.003 | 20000
4 | B4 | 210 | 178 | 0.009 | 40000
5 | B5 | 346 | 78 | 0.01 | 30000
6 | B6 | 102 | 145 | 0.006 | 60000
7 | B7 | 186 | 119 | 0.004 | 20000
8 | B8 | 169 | 122 | 0.004 | 20000
9 | B9 | 158 | 59 | 0.003 | 20000
10 | B10 | 281 | 45 | 0.004 | 10000
11 | B11 | 382 | 301 | 0.01 | 30000
12 | B12 | 1060 | 120 | 0.01 | 10000

target: T2, human TIGIT-Fc; test: CD155 competition ELISA, titration
Description: (§1) TIGIT/CD155 inhibition of VHH-Fcs were assessed using an ELISA assay (Table 10B). Briefly, human TIGIT-Fc was coated on a plate & then incubated with VHH-Fcs and human CD155-biotin. Bound CD155-biotin was detected using a streptavidin-HRP conjugate visualized with TMB. Strong inhibitors from the single point screen were titrated to determine EC50 (Table 10C).

Row | Binder | EC50 [nM]
13 | B13 | 1.53
14 | B14 | 2.08
15 | B15 | 1.37
16 | B16 | 3.47
17 | B17 | 6.52
18 | B18 | 1.78
19 | B19 | 0.181

target: T2, human TIGIT-Fc; test: CD155 competition ELISA, single point; also: test concentration or dose not given here
Description: as §1

Row | Binder | OD (450 nm) [OD]
20 | B20 | 0.441
21 | B13 | 0.0807
22 | B21 | 0.544
23 | B22 | 0.56
24 | B23 | 0.504
25 | B24 | 0.607
26 | B25 | 0.828
27 | B26 | 0.449
28 | B14 | 0.144
29 | B27 | 0.487
30 | B28 | 0.554
31 | B15 | 0.111
32 | B16 | 0.129
33 | B17 | 0.607
34 | B18 | 0.125
35 | B29 | 0.533
36 | B19 | 0.143
37 | B30 | 0.503
38 | B31 | 0.587
39 | B32 | 0.517
40 | B33 | 0.576
